Results as given in patent EP4592321A1 (Biotheus Inc., dated 2025).

Experiments:
[1] = target: T1, human HER2 antigen (purchased from AcroBiosystems) (human, UniProt P04626 23-652); experiment: BLI (ForteBio), antibody on AHQ sensor, 100 nM HER2, 1:1 model
T1 construct: Bought soluble antigen used at 100 nM in BLI; also called human HER2 protein; HER2 protein

[2] = target: T2, HER2 expressed on human gastric cancer cell N87 (human, UniProt P04626 23-1255); experiment: flow cytometry on N87 cells, MFI, anti-human IgG-Fc PE
T2 construct: whole, on cells; N87 cells are described as self-expressing HER2; also called human HER2 on N87 cells; HER2 antigen on N87

[3] = target: T1, human HER2 antigen (purchased from …); experiment: BLI (ForteBio), antibody before and after 2 and 4 weeks at 40 C on AHQ sensor, 100 nM human HER2

Binder	binding result [1]	binding result [2]	binding result [3]
Anti-HER2(NO3-02) (antibody, human IgG1, kappa, V domains shown, also called optimized Anti-HER2 antibody) VH: not shown VL: DIQMTQSPSSLSASVGDRVTITCRASQNVQGAVAWYQQKPGKAPKLLIYSASFLYSGVPSRFSGSRSGTDFTLTISSLQPEDFATYYCQQHYSTPPTFGQGTKVEIKR	binds	binds	–
Anti-HER2(NO3-46) (antibody, human IgG1, kappa, V domains shown, also called optimized Anti-HER2 antibody) VH: not shown VL: DIQMTQSPSSLSASVGDRVTITCRASQSVQGAVAWYQQKPGKAPKLLIYSASFLYSGVPSRFSGSRSGTDFTLTISSLQPEDFATYYCQQHSTTPPTFGQGTKVEIKR	–	binds	binds
Anti-HER2(NO3-36) (antibody, human IgG1, kappa, V domains shown, also called optimized Anti-HER2 antibody) VH: not shown VL: DIQMTQSPSSLSASVGDRVTITCRASNYVQTAVAWYQQKPGKAPKLLIYSASFLYSGVPSRFSGSRSGTDFTLTISSLQPEDFATYYCQQHFMTPPTFGQGTKVEIKR	binds	binds	–
Anti-HER2(NO3-02)_single arm (antibody, human IgG1, kappa, also called Anti-HER2 single-arm antibody) heavy: not shown light: DIQMTQSPSSLSASVGDRVTITCRASQNVQGAVAWYQQKPGKAPKLLIYSASFLYSGVPSRFSGSRSGTDFTLTISSLQPEDFATYYCQQHYSTPPTFGQGTKVEIKRTVAAPSVFIFPPSDEQLKSGTASVVCLLNNFYPREAKVQWKVDNALQSGNSQESVTEQDSKDSTYSLSSTLTLSKADYEKHKVYACEVTHQGLSSPVTKSFNRGEC not shown	binds	binds	–

Now from value to binder:

binding result [1]	binding result [2]	binding result [3]	Binder
binds	binds	–	Anti-HER2(NO3-46)_single arm (antibody, human IgG1, kappa, also called Anti-HER2 single-arm antibody) heavy: not shown light: DIQMTQSPSSLSASVGDRVTITCRASQSVQGAVAWYQQKPGKAPKLLIYSASFLYSGVPSRFSGSRSGTDFTLTISSLQPEDFATYYCQQHSTTPPTFGQGTKVEIKRTVAAPSVFIFPPSDEQLKSGTASVVCLLNNFYPREAKVQWKVDNALQSGNSQESVTEQDSKDSTYSLSSTLTLSKADYEKHKVYACEVTHQGLSSPVTKSFNRGEC not shown
binds	binds	–	Anti-HER2(NO3-36)_single arm (antibody, human IgG1, kappa, also called Anti-HER2 single-arm antibody) heavy: not shown light: DIQMTQSPSSLSASVGDRVTITCRASNYVQTAVAWYQQKPGKAPKLLIYSASFLYSGVPSRFSGSRSGTDFTLTISSLQPEDFATYYCQQHFMTPPTFGQGTKVEIKRTVAAPSVFIFPPSDEQLKSGTASVVCLLNNFYPREAKVQWKVDNALQSGNSQESVTEQDSKDSTYSLSSTLTLSKADYEKHKVYACEVTHQGLSSPVTKSFNRGEC not shown
